The record followed here is publication PMC7246762, “Peptide Interference with APP and Tau Association: Relevance to Alzheimer’s Disease Amelioration” (International Journal of Molecular Sciences, 2020).

No end group written: not given here.

This assay addresses T1, Tau1 (19-34) peptide labelled with rhodamine (human, also: labelled with rhodamine isothiocyanate, site not given here).
T1 construct: microtubule-associated protein Tau, human, residues 19-34; also called Tau1R; source: synthetic peptide (GL Biochem Ltd.), labelled with rhodamine isothiocyanate
T1 peptide: GLGDRKDQGGYTMHQD
Nature of the assay: far-Western, overlay or dot blot; mixtures of a fluorescein-labelled (green) and a rhodamine-labelled (red) peptide spotted on a nitrocellulose membrane; yellow colour read as binding. The following applies: both partners purified.

B1: APP1 (390-412) peptide labelled with fluorescein (peptide)
peptide: HFQKAKERLEAKHRERMSQVMRE
modifications: also: labelled with fluorescein isothiocyanate, site not given here
notes: amyloid precursor protein, human, residues 390-412; The discussion names the region as 389-411; also called APP1F; App1F; source: synthetic peptide (GL Biochem Ltd.), labelled with fluorescein isothiocyanate
On to B1, for which the binding result was “binds”.
